According to paper PMC7264223, “Tetrameric architecture of an active phenol-bound form of the AAA^+ transcriptional regulator DmpR” (Nature Communications, 2020):
Several values for one entry are separate records, joined by “and”; a condition that tells them apart may be missing. Identical values can stand only once.

B2: DmpR^WT, full-length DmpR (di-methyl phenol regulator) bearing an N-terminal 6 × His tag (natural protein, Pseudomonas putida KCTC 1452, UniProt Q7WSM9 1-563, looked up)
chain: MPIKYKPEIQHSDFKDLTNLIHFQSTEGKIWLGEQRMLLLQVSAMASFRREMVNTLGIERAKGFFLRQGYQSGLKDAELARKLRPNASEYDMFLAGPQLHSLKGLVKVRPTEVDIDKECGRFYAEMEWIDSFEVEICQTDLGQMQDPVCWTLLGYACAYSSAFMGREIIFKEVSCRGCGGDKCRVIGKPAEEWDDVASFKQYFKNDPIIEELYELQSQLVSLRTNLDKQEGQYYGIGQTPAYQTVRNMMDKAAQGKVSVLLLGETGVGKEVIARSVHLRSKRAAEPFVAVNCAAIPPDLIESELFGVEKGAFTGATQSRMGRFERADKGTIFLDEVIELSPRAQASLLRVLQEGELERVGDNRTRKIDVRVIAATHEDLAEAVKAGRFRADLYYRLNVFPVAIPALRERREDIPLLVEHFLQRFHQEYGKRTLGLSDKALEACLHYSWPGNIRELENVIERGIILTDPNESISVQALFPRAPEEPQTASERVSSDGVLIQPGNGQGSWISQLLSSGLSLDEIEESLMREAMQQANQNVSGAARLLGLSRPALAYRLKKIGIEG
notes: DmpR (CapR) of Pseudomonas putida KCTC 1452, codons 1-563 (wild type), GenBank AAP46187.1; 66 kDa with tag; Mixture of dimers and tetramers without phenol, predominantly a tetramer with phenol; Vector pProEX HTa; also called CapR; wild type DmpR; source: E. coli BL21-CodonPlus (DE3)-RIL, purified (His-Trap HP, Superdex 200); not shown: His6, N-terminal, kept

Tests used:
[1] = target: eGFP-DmpR^WT, fusion of eGFP and N-terminally 6 × His-tagged DmpR^WT (Pseudomonas putida KCTC 1452); assay: single-molecule fluorescence imaging (TIRF); eGFP-DmpR^WT (100 pM, with 1 mM MgCl2, 3 mM phenol, 1 mM ATPγS) held by biotinylated anti-GFP antibody; 1 nM Cy5-labelled σ^54_((1–119))-CPD added; 50 mM HEPES-NaOH pH 7.5, 300 mM NaCl, 5 mM MgCl2
[2] = target: eGFP-DmpR^WT, fusion of eGFP and N-terminally 6 × His-tagged DmpR^WT (Pseudomonas putida KCTC 1452); assay: single-molecule photobleaching (TIRF); eGFP-DmpR^WT (100 pM) held by biotinylated anti-GFP antibody on streptavidin surface, PBS, without phenol; steps of eGFP bleaching counted
[3] = target: eGFP-DmpR^WT, fusion of eGFP and N-terminally 6 × His-tagged DmpR^WT (Pseudomonas putida KCTC 1452); assay: single-molecule photobleaching (TIRF); eGFP-DmpR^WT (100 pM) held by biotinylated anti-GFP antibody on streptavidin surface, PBS, with 3 mM phenol; addition of 1 mM ATP changed nothing
[4] = target: eGFP-DmpR^WT, fusion of eGFP and N-terminally 6 × His-tagged DmpR^WT (Pseudomonas putida KCTC 1452); assay: single-molecule fluorescence imaging (TIRF); biotinylated σ^54_((1–119))-CPD immobilised through biotin-streptavidin; eGFP-DmpR^WT added with phenol and ATPγS; bleaching steps of bound eGFP-DmpR counted
[5] = target: DmpR^ΔD, truncated DmpR derivative (aa 18–481) with C119S/C137S (Pseudomonas putida KCTC 1452); assay: crystal structure; DmpR^ΔD crystallised with 10 mM phenol and 3 mM AMP-PNP, sitting drop, 4 °C; 3.4 Å
[6] = target: DmpR^ΔD, truncated DmpR derivative (aa 18–481) with C119S/C137S (Pseudomonas putida KCTC 1452); assay: not stated; DmpR^ΔD in the presence of phenol (Supplementary Fig. 2a, b)
[7] = target: DmpR^ΔS, truncated DmpR lacking only the sensory domain (residues 205–563) (Pseudomonas putida KCTC 1452); assay: native gel or EMSA; blue native PAGE of truncated DmpR proteins after incubation with ATP or ATPγS, without phenol
[8] = target: DmpR^ΔS, truncated DmpR lacking only the sensory domain (residues 205–563) (Pseudomonas putida KCTC 1452); assay: SEC-MALS; SEC combined with MALS of DmpR^ΔS
DmpR [9] = target: T1, DmpR (Pseudomonas putida, UniProt Q7WSM9); assay: activation of ATPase activity (radiolabelled ATP, TLC); phenol-induced tetramerization (BN-PAGE, SEC-MALS, single-molecule photobleaching); format: biochemical
T1 construct: DmpR^WT, full-length (1–563), N-terminal 6 × His tag
T1 sequence (Q7WSM9 1-563): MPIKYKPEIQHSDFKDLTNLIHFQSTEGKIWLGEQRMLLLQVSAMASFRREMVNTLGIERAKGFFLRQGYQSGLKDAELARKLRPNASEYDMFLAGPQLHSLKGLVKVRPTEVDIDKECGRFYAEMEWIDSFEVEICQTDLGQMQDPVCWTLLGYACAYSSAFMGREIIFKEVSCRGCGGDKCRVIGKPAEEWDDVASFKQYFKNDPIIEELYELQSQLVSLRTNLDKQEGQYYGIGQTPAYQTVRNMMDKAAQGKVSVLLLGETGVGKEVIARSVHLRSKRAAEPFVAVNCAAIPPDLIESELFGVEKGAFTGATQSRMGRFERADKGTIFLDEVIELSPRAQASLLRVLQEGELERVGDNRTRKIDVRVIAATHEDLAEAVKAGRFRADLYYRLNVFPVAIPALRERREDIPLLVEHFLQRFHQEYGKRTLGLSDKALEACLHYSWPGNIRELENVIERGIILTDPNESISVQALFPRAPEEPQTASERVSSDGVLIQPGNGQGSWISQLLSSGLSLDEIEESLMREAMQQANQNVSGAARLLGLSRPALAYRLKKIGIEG

DmpR [10] = target: DmpR (Pseudomonas putida, UniProt Q7WSM9, C119S/C137S); assay: ([…] Å) and isothermal titration calorimetry; format: binding
[11] = target: B2; assay: ITC; MicroCal Auto-iTC200, 25 °C; DmpR in the cell, σ^54_((1–119))-CPD (400 µM) as injectant; with phenol and ATPγS; details: both partners purified
[12] = target: the molecule itself; assay: native gel or EMSA; blue native PAGE (4–16% gradient gel), 20 µM DmpR, 20 min at 25 °C, without phenol

## eGFP-DmpR^WT, fusion of eGFP and N-terminally 6 × His-tagged DmpR^WT (natural protein)
[1]
  stoichiometry N: 4
[2]
  percent of molecules with four-step photobleaching (tetramers): 19%
  percent of molecules with three-step photobleaching (trimers): 14%
  percent of molecules with two-step photobleaching (dimers): 32%
[3]
  percent of molecules with four-step photobleaching (tetramers): 34%
  percent of molecules with two-step photobleaching (dimers): 17%
[4]
  stoichiometry N: 4

## DmpR^ΔD, truncated DmpR derivative (aa 18–481) with C119S/C137S (domain or fragment)
[5]
  stoichiometry N: 4
[6]
  stoichiometry N: 4

## DmpR^ΔS, truncated DmpR lacking only the sensory domain (residues 205–563) (domain or fragment)
[7]
  stoichiometry N: 4
[8]
  stoichiometry N: 4

## Oc1ccccc1 [phenol]
DmpR [9]
  activation of ATPase activity (radiolabelled ATP, TLC); phenol-induced tetrameri: The DmpR^WT and DmpR^ΔD proteins exhibited ATP hydrolysis in the presence of phenol
DmpR [10]
  Kd: ~12 µM

B1: σ^54_((1–119))-CPD, N-terminal residues of σ^54 (aa 1–119) fused to a C-terminal cysteine protease domain (CPD) (domain or fragment, UniProt P0A171 1-119, looked up)
chain: MKPSLVLKMGQQLTMTPQLQQAIRLLQLSTLDLQQEIQEALESNPMLERQEDGEDFDNSDPMADNAENKPAAEVQDNSFQESTVSADNLEDGEWSERIPNELPVDTAWEDIYQTSASSL
notes: also called N-terminal peptide of σ^54; σ^54 peptide; source: E. coli BL21-CodonPlus (DE3)-RIL, purified (His-Trap HP, Superdex 200); not shown: CPD (cysteine protease domain), C-terminal, kept
[11]
  Kd: ~4 µM
  stoichiometry N: 0.86 ± 0.022

## B2
[12]
  stoichiometry N: 2 and 4
